Measured values as given in paper PMC9714555, “Hemocyte response to treatment of susceptible and resistant Asian corn borer (Ostrinia furnacalis) larvae with Cry1F toxin from Bacillus thuringiensis” (Frontiers in Immunology, 2022).

B1: CD63 antigen-like (CD63) tetraspanin, His tag removed (natural protein)
chain: KGNAEALVQKQLYETMQLYTHDVVVTRLWDEVQEDFSCCGVNNASDWLAPLGTANTDQGLPLSCCQFPFGTITVFNCTMATPAPTLRTEGCSTAFGAWVQSHAGS
modifications: Wild-type trypsin-activated core; the text prints neither the Cry1F subtype nor the limits. Cry1Fa assumed, with the conventional tryptic core 28-612.
B2: C-type mannose receptor 2-like (C-MR2), His tag removed (natural protein)
chain: SELNTSKSNWFRPDYSYSERTGGWFKFHSVPATWEDARLQCYYEGAELVSPFNENIIQKMIMLMDVNEPYIFTGIHSTFSKGVYTSVGGVPLHEMPVSLHSRDVSGNCVTMRSNGRVEARNCSSQYPYICFKKGPEHLTSSVCGADQEYKYEQRTGSCYKFHTLGRTWPQAFRVCVAEGGHLAIINSDVEADVIRGIFQNYPDDAFKADAKYAASIGFQGWGAVKIWWTIHGQTLQDAGYSKWDKFVPDMRSTRHYCGAVGRNGTLSHIECEGVTFPAICEKKADLV
modifications: Wild-type trypsin-activated core; the text prints neither the Cry1F subtype nor the limits. Cry1Fa assumed, with the conventional tryptic core 28-612.
B3: hemolymph lipopolysaccharide-binding protein (LBP), His tag removed (natural protein)
chain: QKRYRNDYVYDANTDAFYKFHVNMAVHWRALTICKLEGATLMVPTSVQQIAQVHGMFKQYPDIGHYVWIGDDNADHESAEETPIIDLQPEVETEAPWERRCLVLTRRGEIQTQNCRYYQSFVCMVEAKNAPYDHRCDVYAAGYEYNTDVKSCYKIPRDIKTWNAAYAECQAHGAHLVVVNSVTERDVLQALMSRTPYLRTSFSPYHYIAGIRATSVIGSEVVYRTIFNETLEEAGFSEWADNEPNNQQGIEYCGSLHQRSGKYNDISCLSSFGYICEKERNE
modifications: Wild-type trypsin-activated core; the text prints neither the Cry1F subtype nor the limits. Cry1Fa assumed, with the conventional tryptic core 28-612.
B4: C-type lectin lectoxin-Phi1-like (C-lectoxin), His tag removed (natural protein)
chain: DVPKDYIVNPNDSHGYKLMYHAKTWTEARDDCANVGAKLAVPKTRDQFEFIQKIVRSMQYQSIVGTEYKLLVWLGISNLKNYQVWANVDGENIEDTEFHTWAGQNGLKSENPAEPHCVGMDSMNFGLRDWWCHQRQPYICEILTVQNATQ
modifications: Wild-type trypsin-activated core; the text prints neither the Cry1F subtype nor the limits. Cry1Fa assumed, with the conventional tryptic core 28-612.

The binders below were run against Trypsin-activated Cry1F toxin from Bacillus thuringiensis (Bacillus thuringiensis, UniProt Q03746 1-1174) (assay: SPR; Biacore 8K; activated Cry1F immobilised on a CM5 chip (10 mM sodium acetate pH 4.0); analytes without His tag in 10 mM HEPES, 150 mM NaCl, 3 mM EDTA, 0.005% Tween-20, pH 7.4; 30 uL/min, association 120 s, dissociation 280 s; 1:1 binding model). Settings: both partners purified.
Trypsin-activated Cry1F toxin from Bacillus thuringiensis, sequence (Q03746 28-612 limits assumed): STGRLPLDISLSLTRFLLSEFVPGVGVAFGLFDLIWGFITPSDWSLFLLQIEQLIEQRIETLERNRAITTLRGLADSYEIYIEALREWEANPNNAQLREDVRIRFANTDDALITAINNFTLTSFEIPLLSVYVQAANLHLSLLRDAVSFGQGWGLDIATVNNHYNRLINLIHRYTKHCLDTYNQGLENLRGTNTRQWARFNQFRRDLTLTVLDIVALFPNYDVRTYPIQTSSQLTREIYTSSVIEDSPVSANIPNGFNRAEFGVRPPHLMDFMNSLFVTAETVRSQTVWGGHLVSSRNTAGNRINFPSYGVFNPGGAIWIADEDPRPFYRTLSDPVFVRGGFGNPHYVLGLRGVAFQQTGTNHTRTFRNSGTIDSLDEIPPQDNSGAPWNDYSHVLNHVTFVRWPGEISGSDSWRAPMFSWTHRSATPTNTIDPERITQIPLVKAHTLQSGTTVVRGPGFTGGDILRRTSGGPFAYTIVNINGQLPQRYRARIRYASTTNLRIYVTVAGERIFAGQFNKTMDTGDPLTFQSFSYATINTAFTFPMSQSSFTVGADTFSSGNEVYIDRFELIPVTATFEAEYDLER

Q: With B1 as the binder, how does the Kd read?
A: 294 nM

Q: And the koff?
A: 0.00474 s⁻¹

Q: And the kon?
A: 16100 M⁻¹ s⁻¹

Q: Which results are given for B2?
A: Kd: 22.1 nM; koff: 0.0041 s⁻¹; kon: 185000 M⁻¹ s⁻¹

Q: For B3, which Kd is on record?
A: 119 nM

Q: And the koff?
A: 0.00294 s⁻¹

Q: What about the kon of the same binder?
A: 24700 M⁻¹ s⁻¹

Q: Which Kd does the source give for B4 here?
A: 46.6 nM

Q: What about the koff of the same binder?
A: 0.00513 s⁻¹

Q: What about the kon of the same binder?
A: 110000 M⁻¹ s⁻¹
